Results published in publication PMC10144430 (Viruses, 2023).

How the values were obtained:
[1] = target: T1, cys2_(306t), soluble disulfide-bonded gD mutant (K190C-A277C) truncated at position 306 ( (herpes simplex virus)); …, UniProt Q69467 26-331, K190C | A277C, engineered disulfide bond Cys190-Cys277 (reduced where TCEP was added)); experiment: SPR; Biacore 3000, room temperature, HBS-EP; gD captured via Mab 1D3 on a CM5 chip; soluble nectin-1 injected 300 s at 5 uL/min (also pre-mixed with 1 mM TCEP, binding unaffected); settings: both partners purified
T1 construct: also called gD cys2; cy2; source: 293T cells, transfected, purified from supernatant (nickel column); not shown: His6, C-terminal, kept

[2] = target: T2, gDL268N_(306t), soluble gD L268N truncated at residue 306 ( (herpes simplex virus; …, UniProt Q69467 26-331, L268N); experiment: as above; settings: both partners purified
T2 construct: source: 293T cells, transfected, purified from supernatant (Ni-NTA resin)

B1: soluble nectin-1 (receptor)
chain: QVVQVNDSMYGFIGTDVVLHCSFANPLPSVKITQVTWQKSTNGSKQNVAIYNPSMGVSVLAPYRERVEFLRPSFTDGTIRLSRLELEDEGVYICEFATFPTGNRESQLNLTVMAKPTNWIEGTQAVLRAKKGQDDKVLVATCTSANGKPPSVVSWETRLKGEAEYQEIRNPNGTVTVISRYRLVPSREAHQQSLACIVNYHMDRFKESLTLNVQYEPEVTIEGFDGNWYLQRMDVKLTCKADANPPATEYHWTTLNGSLPKGVEAQNRTLFFKGPINYSLAGTYICEATNPIGTRSGQVEVNITEFPYTPSPPEHGRRAGPVPTA
notes: source: baculovirus-infected insect cells (Sf9), purified
nectin-1 binding, % of wt [1]: ~40 % of wt
nectin-1 binding, % of wt [2]: ~50 % of wt
